The text below walks through data of paper doi:10.1101/2025.04.28.650926 (bioRxiv, 2025).

The series “native gel or EMSA” deals with the molecule itself. The series can be described thus: native gel or EMSA.
The target of series [1] is T1, HSF1-ΔLZ4-TAD (human, UniProt Q00613 1-383). The series can be described thus: fluorescence polarization. For orientation: Polarisation of emitted light reports the rotation of a fluorescent probe.
In the next series the target is HSF1-DBD (human, UniProt Q00613 1-123). The series can be described thus: fluorescence polarization.
The target of series [2] is T2, HSF1-WT monomer (SEC peak 3) (human, UniProt Q00613 1-529). The series can be described thus: fluorescence polarization.
The next series concerns the target HSF1-ΔLZ1-3 (HSF1-CM) (human, UniProt Q00613 1-129+204-529, internal_change). The series can be described thus: fluorescence polarization.
Series [3] deals with T1, HSF1-ΔLZ4-TAD. The series can be described thus: fluorescence polarization. This is another data set of the same source.
For the next series, the target named is HSF1-LZ4m (HSF1-CT) (human, UniProt Q00613 1-529, M391K;L395P;L398R). The series can be described thus: fluorescence polarization.
The target in series [4] is T2, HSF1-WT monomer (SEC peak 3). The series can be described thus: fluorescence polarization. The source holds these as a separate data set.
Another series concerns the target HSF1-ΔTAD (human, UniProt Q00613 1-409). The series can be described thus: fluorescence polarization.
Series [5] has as its target HSF1-WT trimer/oligomer (SEC peak 1) (human, UniProt Q00613 1-529). The series can be described thus: fluorescence polarization.

Where two headings read alike, the source gives them in different places.

Sequence of HSF1-WT trimer/oligomer (SEC peak 1) (Q00613 whole entry): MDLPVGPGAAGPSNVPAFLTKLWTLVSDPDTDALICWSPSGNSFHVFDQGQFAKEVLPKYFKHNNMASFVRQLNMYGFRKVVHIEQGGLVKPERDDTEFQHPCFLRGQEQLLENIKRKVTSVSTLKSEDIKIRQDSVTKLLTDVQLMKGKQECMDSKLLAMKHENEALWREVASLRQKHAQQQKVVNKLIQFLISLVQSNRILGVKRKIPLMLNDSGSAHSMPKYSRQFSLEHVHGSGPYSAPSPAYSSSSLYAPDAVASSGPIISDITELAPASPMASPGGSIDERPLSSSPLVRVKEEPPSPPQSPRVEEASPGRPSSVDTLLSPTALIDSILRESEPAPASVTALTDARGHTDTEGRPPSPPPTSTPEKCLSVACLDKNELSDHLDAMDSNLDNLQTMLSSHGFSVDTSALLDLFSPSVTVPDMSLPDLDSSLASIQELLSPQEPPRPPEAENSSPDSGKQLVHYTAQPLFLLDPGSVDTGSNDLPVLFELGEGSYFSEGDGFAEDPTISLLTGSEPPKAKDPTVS

B1: HSF1-LZ4mutant (LZ4m), constitutively trimeric/ oligomeric (CT) (natural protein, human, UniProt Q00613 1-529, looked up)
chain: MDLPVGPGAAGPSNVPAFLTKLWTLVSDPDTDALICWSPSGNSFHVFDQGQFAKEVLPKYFKHNNMASFVRQLNMYGFRKVVHIEQGGLVKPERDDTEFQHPCFLRGQEQLLENIKRKVTSVSTLKSEDIKIRQDSVTKLLTDVQLMKGKQECMDSKLLAMKHENEALWREVASLRQKHAQQQKVVNKLIQFLISLVQSNRILGVKRKIPLMLNDSGSAHSMPKYSRQFSLEHVHGSGPYSAPSPAYSSSSLYAPDAVASSGPIISDITELAPASPMASPGGSIDERPLSSSPLVRVKEEPPSPPQSPRVEEASPGRPSSVDTLLSPTALIDSILRESEPAPASVTALTDARGHTDTEGRPPSPPPTSTPEKCLSVACLDKNELSDHLDAKDSNPDNRQTMLSSHGFSVDTSALLDLFSPSVTVPDMSLPDLDSSLASIQELLSPQEPPRPPEAENSSPDSGKQLVHYTAQPLFLLDPGSVDTGSNDLPVLFELGEGSYFSEGDGFAEDPTISLLTGSEPPKAKDPTVS
With B1, the binding result in the series “native gel or EMSA” is recorded as “binds”.

B2: HSE (canonical three-site) (dsDNA)
DNA 1: CCTGGAATATTCCCGAACTGGC
DNA 2: GCCAGTTCGGGAATATTCCAGG
By Kd is commonly meant a measure of binding affinity in units of concentration. Low values mean higher affinity, high ones lower affinity. Regarding B2, the dissociation constant (Kd) in the series with HSF1-ΔLZ4-TAD [1] was found to be 12.9 ± 0.335 nM; in the series with HSF1-DBD, 85.3 ± 6.29 nM; in [2], 7.98 ± 1.43 nM; in the series with HSF1-ΔLZ1-3 (HSF1-CM) it was 6.57 ± 1.39 nM; with HSF1-ΔLZ4-TAD [3], 22.6 ± 1.36 nM; with HSF1-LZ4m (HSF1-CT) it was 25.1 ± 8.09 nM. Moreover, the Kd in [4] was 56.7 ± 4.62 nM; with HSF1-ΔTAD, 60.3 ± 1.13 nM; in series [5], 17.1 ± 6.28 nM.

B3: mHSE (mutant HSE) (dsDNA)
DNA 1: CCTGGCGTAGTCCCCGCCTGGC
DNA 2: GCCAGGCGGGGACTACGCCAGG
On to B3, for which, in [2], binding was put at a Kd of 84.8 ± 14.2 nM.
